# Assay results from publication PMC6510891, “Functional duplication of Rap1 in methylotrophic yeasts”.
# T1: HpRap1B (Hansenula polymorpha DL-1, UniProt W1QDN2 1-576)
# T1 sequence: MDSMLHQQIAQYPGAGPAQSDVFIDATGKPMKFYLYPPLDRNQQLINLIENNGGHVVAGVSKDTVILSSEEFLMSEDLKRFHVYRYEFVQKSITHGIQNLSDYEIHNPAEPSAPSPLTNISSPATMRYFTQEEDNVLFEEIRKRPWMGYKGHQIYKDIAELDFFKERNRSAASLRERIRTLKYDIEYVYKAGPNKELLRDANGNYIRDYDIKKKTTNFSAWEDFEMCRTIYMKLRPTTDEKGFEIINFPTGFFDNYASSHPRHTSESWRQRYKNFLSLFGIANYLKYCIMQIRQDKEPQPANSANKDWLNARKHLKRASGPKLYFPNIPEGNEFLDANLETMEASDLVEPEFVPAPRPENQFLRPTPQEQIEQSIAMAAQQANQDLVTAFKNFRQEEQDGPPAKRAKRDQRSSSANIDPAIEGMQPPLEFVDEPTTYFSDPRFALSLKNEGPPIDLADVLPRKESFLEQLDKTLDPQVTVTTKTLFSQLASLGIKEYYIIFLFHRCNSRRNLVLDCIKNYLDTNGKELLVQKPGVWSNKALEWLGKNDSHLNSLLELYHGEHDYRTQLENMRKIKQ
# T2: HpRap1A (Hansenula polymorpha DL-1, UniProt W1Q7Z6 1-613)
# T2 sequence: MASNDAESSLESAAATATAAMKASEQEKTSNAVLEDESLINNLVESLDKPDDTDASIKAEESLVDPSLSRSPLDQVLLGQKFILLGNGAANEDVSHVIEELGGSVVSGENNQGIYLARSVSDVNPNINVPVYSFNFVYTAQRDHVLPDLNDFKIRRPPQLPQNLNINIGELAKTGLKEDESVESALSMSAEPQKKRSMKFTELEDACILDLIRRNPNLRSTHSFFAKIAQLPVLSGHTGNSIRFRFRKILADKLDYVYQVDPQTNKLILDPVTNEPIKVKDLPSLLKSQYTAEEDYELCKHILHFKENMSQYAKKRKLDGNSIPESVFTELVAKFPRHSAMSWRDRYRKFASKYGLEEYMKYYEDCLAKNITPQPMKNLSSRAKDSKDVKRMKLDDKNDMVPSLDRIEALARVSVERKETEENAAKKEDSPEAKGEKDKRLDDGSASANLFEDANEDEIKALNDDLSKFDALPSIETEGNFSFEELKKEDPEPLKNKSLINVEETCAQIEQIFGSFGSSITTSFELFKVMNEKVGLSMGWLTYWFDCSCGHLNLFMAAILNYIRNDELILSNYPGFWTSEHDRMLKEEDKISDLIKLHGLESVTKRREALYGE
# B1: VIIrAbs (competitor) (dsDNA)
# DNA 1: GGCAGGCGGTGTAGGGATGCGGC
# DNA 2: GCCGCATCCCTACACCGCCTGCC
# B2: PICPA (dsDNA)
# DNA 1: GGATGCTGGATGCTGGATGCTGGATGCT
# DNA 2: AGCATCCAGCATCCAGCATCCAGCATCC
# B3: DEKBR (dsDNA)
# DNA 1: GGATTGGTGGATTGGTGGATTGGT
# DNA 2: ACCAATCCACCAATCCACCAATCC
# B4: rnd1 (competitor) (dsDNA)
# DNA 1: ACGACTCACTGTAGATACGACTCACTGTAGAT
# DNA 2: ATCTACAGTGAGTCGTATCTACAGTGAGTCGT
# B5: rnd2 (dsDNA)
# DNA 1: AAATCTAGACATGAAAAAAAAAATGTTAGTAATCGAAATCTC
# DNA 2: GAGATTTCGATTACTAACATTTTTTTTTTCATGTCTAGATTT
# B6: RPS16 (dsDNA)
# DNA 1: CAAACCCCGTGTAAGGGTGCCTA
# DNA 2: TAGGCACCCTTACACGGGGTTTGCCTCTACGTCCTCCTGCTCC
# B7: CANAL (SPR) (dsDNA)
# DNA 1: ACTTCTTGGTGTACGGATGTCTA
# DNA 2: TAGACATCCGTACACCAAGAAGTCCTCTACGTCCTCCTGCTCC
# B8: RPS14 (dsDNA)
# DNA 1: GTGTTCAGGTGTGAGGTGTGTTT
# DNA 2: AAACACACCTCACACCTGAACACCCTCTACGTCCTCCTGCTCC
# B9: PICKU (SPR) (dsDNA)
# DNA 1: TGAACTAGGAGCGAGGTGTGTTAC
# DNA 2: GTAACACACCTCGCTCCTAGTTCACCTCTACGTCCTCCTGCTCC
# B10: SACCE (competitor) (dsDNA)
# DNA 1: GTGTGTGGGTGTGTGGGTGTGTG
# DNA 2: CACACACCCACACACCCACACAC
# B11: CANAR (competitor) (dsDNA)
# DNA 1: GGTGTTGGGTGTTGGGTGTTGGG
# DNA 2: CCCAACACCCAACACCCAACACC
# B12: PICME (dsDNA)
# DNA 1: TAGAACTAGGTGTGCGGGGTATAATAG
# DNA 2: CTATTATACCCCGCACACCTAGTTCTA
# B13: CANAL (competitor) (dsDNA)
# DNA 1: ACTTCTTGGTGTACGGATGTCTA
# DNA 2: TAGACATCCGTACACCAAGAAGT
# B14: CANMA (dsDNA)
# DNA 1: CTCGCTTGGTGTACGGATGCAGA
# DNA 2: TCTGCATCCGTACACCAAGCGAG
# B15: DEBHA (dsDNA)
# DNA 1: GTGTTGAGGTGTAGGGATGTTGA
# DNA 2: TCAACATCCCTACACCTCAACAC
# B16: HANPO4 (competitor) (dsDNA)
# DNA 1: GGGTGGCGGGGTGGCGGGGTGGCGGGGTGGCG
# DNA 2: CGCCACCCCGCCACCCCGCCACCCCGCCACCC
# B17: PACTA (dsDNA)
# DNA 1: TGTGAGTGGTGTGAGTGGTGTGAGTGG
# DNA 2: CCACTCACACCACTCACACCACTCACA
# B18: CANAR (SPR) (dsDNA)
# DNA 1: GGTGTTGGGTGTTGGGTGTTGGG
# DNA 2: CCCAACACCCAACACCCAACACCCCTCTACGTCCTCCTGCTCC
# B19: RPL36b (dsDNA)
# DNA 1: GGACAGTGGTGTAGGGGGTAGAG
# DNA 2: CTCTACCCCCTACACCACTGTCCCCTCTACGTCCTCCTGCTCC
# B20: RPS22b (dsDNA)
# DNA 1: AATGTTCGGTTCGAGGAGTTCTT
# DNA 2: AAGAACTCCTCGAACCGAACATTCCTCTACGTCCTCCTGCTCC
# B21: rnd1 (SPR) (dsDNA)
# DNA 1: B4 DNA 1
# DNA 2: ATCTACAGTGAGTCGTATCTACAGTGAGTCGTCCTCTACGTCCTCCTGCTCC
# Biological target: T1, HpRap1B
# Experiment: competition SPR; score - vs PICKU surface; SPR: 10 mM HEPES-NaOH pH 7.5, 150 mM NaCl, 0.5 mM DTT, 0.05% Tween 20, 1 mg/ml BSA, 0.02 mg/ml salmon sperm DNA; competition 2 nM protein with 20 or 200 nM competitor. EMSA: 20 mM HEPES-NaOH pH 7.5, 50 mM NaCl, 0.2 mg/ml BSA, 5% glycerol, 0.1 mg/ml salmon sperm DNA, room temperature
# Settings: protein: recombinant; blunt
row,Binder,binding result
1,B1,no binding
2,B2,no binding
3,B3,no binding
4,B4,no binding
5,B5,no binding

# Biological target: T2, HpRap1A
# Experiment: SPR; kinetic fit; SPR: 10 mM HEPES-NaOH pH 7.5, 150 mM NaCl, 0.5 mM DTT, 0.05% Tween 20, 1 mg/ml BSA, 0.02 mg/ml salmon sperm DNA; competition 2 nM protein with 20 or 200 nM competitor. EMSA: 20 mM HEPES-NaOH pH 7.5, 50 mM NaCl, 0.2 mg/ml BSA, 5% glycerol, 0.1 mg/ml salmon sperm DNA, room temperature
# Settings: protein: recombinant; 3' overhang 20 nt on strand 2
row,Binder,Kd
1,B6,0.5 ± 0.08 nM
2,B7,0.05 ± 0.014 nM

# Biological target: T1, HpRap1B
# Experiment: as above
# Settings: protein: recombinant; 3' overhang 20 nt on strand 2
row,Binder,Kd
1,B8,0.048 ± 0.007 nM
2,B9,0.27 ± 0.08 nM

# Biological target: T1, HpRap1B
# Experiment: competition SPR; score ++ vs PICKU surface; SPR: 10 mM HEPES-NaOH pH 7.5, 150 mM NaCl, 0.5 mM DTT, 0.05% Tween 20, 1 mg/ml BSA, 0.02 mg/ml salmon sperm DNA; competition 2 nM protein with 20 or 200 nM competitor. EMSA: 20 mM HEPES-NaOH pH 7.5, 50 mM NaCl, 0.2 mg/ml BSA, 5% glycerol, 0.1 mg/ml salmon sperm DNA, room temperature
# Settings: protein: recombinant; blunt
row,Binder,binding result
1,B10,binds
2,B11,binds
3,B12,binds

# Biological target: T2, HpRap1A
# Experiment: competition SPR; score +++ vs VIIrAbs surface; SPR: 10 mM HEPES-NaOH pH 7.5, 150 mM NaCl, 0.5 mM DTT, 0.05% Tween 20, 1 mg/ml BSA, 0.02 mg/ml salmon sperm DNA; competition 2 nM protein with 20 or 200 nM competitor. EMSA: 20 mM HEPES-NaOH pH 7.5, 50 mM NaCl, 0.2 mg/ml BSA, 5% glycerol, 0.1 mg/ml salmon sperm DNA, room temperature
# Settings: protein: recombinant; blunt
row,Binder,binding result
1,B1,binds
2,B13,binds
3,B14,binds
4,B15,binds

# Biological target: T2, HpRap1A
# Experiment: competition SPR; score - vs VIIrAbs surface; SPR: 10 mM HEPES-NaOH pH 7.5, 150 mM NaCl, 0.5 mM DTT, 0.05% Tween 20, 1 mg/ml BSA, 0.02 mg/ml salmon sperm DNA; competition 2 nM protein with 20 or 200 nM competitor. EMSA: 20 mM HEPES-NaOH pH 7.5, 50 mM NaCl, 0.2 mg/ml BSA, 5% glycerol, 0.1 mg/ml salmon sperm DNA, room temperature
# Settings: protein: recombinant; blunt
row,Binder,binding result
1,B16,no binding
2,B11,no binding
3,B17,no binding
4,B2,no binding
5,B12,no binding
6,B3,no binding
7,B4,no binding
8,B5,no binding

# Biological target: T2, HpRap1A
# Experiment: SPR; SPR: 10 mM HEPES-NaOH pH 7.5, 150 mM NaCl, 0.5 mM DTT, 0.05% Tween 20, 1 mg/ml BSA, 0.02 mg/ml salmon sperm DNA; competition 2 nM protein with 20 or 200 nM competitor. EMSA: 20 mM HEPES-NaOH pH 7.5, 50 mM NaCl, 0.2 mg/ml BSA, 5% glycerol, 0.1 mg/ml salmon sperm DNA, room temperature
# Settings: protein: recombinant; 3' overhang 20 nt on strand 2
row,Binder,binding result
1,B8,no binding
2,B9,no binding
3,B18,no binding
4,B19,no binding
5,B20,no binding
6,B21,no binding

# Biological target: T1, HpRap1B
# Experiment: as above
# Settings: protein: recombinant; 3' overhang 20 nt on strand 2
row,Binder,binding result
1,B6,no binding
2,B21,no binding
